Test results taken from patent US5493008A, “Two non-contiguous regions contribute to nidogen binding to a single EGF-like motif of the laminin γ1 chain” (The University Of Virginia Patent Foundation, priority 1994, dated 1996).
Like-named read-outs stand apart in the source and are kept apart here. Where no end group is shown, it is not given here. The star is where a group is joined. Succinimide(1-Et,3-yl) = CCN1C(=O)CC(*)C1=O

Tests used:
[1] = target: T1, recombinant nidogen (Mus musculus (Mouse)) (UniProt P10493); assay: radioligand competition assay: non-labeled fragment P1 varied, 0.2 nM recombinant nidogen, 125I-laminin fragment P1
T1 sequence: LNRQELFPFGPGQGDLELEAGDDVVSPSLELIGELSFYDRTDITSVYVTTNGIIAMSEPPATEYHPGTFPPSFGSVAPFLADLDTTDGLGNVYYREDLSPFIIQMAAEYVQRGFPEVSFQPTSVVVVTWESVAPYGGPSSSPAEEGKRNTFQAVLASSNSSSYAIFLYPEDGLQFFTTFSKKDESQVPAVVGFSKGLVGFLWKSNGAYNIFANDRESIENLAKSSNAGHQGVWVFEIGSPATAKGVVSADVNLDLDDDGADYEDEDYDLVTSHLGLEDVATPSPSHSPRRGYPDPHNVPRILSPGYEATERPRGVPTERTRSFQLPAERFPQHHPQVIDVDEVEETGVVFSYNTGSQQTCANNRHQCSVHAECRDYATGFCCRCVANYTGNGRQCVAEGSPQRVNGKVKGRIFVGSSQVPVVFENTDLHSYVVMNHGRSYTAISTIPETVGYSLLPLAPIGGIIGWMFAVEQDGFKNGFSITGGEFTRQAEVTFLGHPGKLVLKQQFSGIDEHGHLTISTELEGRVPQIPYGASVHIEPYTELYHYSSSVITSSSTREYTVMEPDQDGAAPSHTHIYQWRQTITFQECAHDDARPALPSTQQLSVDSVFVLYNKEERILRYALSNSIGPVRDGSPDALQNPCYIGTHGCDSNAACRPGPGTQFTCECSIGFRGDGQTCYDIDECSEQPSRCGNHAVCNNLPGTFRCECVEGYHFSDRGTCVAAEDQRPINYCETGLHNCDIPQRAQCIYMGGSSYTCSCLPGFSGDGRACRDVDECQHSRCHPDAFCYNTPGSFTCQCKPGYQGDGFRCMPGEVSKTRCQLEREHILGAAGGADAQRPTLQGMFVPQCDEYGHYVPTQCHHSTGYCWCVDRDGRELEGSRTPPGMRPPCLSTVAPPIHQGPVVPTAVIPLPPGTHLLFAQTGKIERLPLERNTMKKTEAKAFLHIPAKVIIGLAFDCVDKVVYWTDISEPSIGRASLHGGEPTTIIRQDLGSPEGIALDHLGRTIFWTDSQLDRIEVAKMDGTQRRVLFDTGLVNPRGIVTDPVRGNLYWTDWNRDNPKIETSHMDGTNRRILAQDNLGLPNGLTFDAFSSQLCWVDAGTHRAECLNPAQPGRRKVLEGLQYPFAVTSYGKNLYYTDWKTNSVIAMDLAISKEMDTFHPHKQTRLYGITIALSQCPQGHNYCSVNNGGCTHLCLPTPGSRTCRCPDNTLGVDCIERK

[2] = target: T1, recombinant nidogen (Mus musculus (Mouse)); assay: radioligand competition assay, average of 14 separate assays: non-labeled fragment P1 varied, 0.2 nM recombinant nidogen, 125I-laminin fragment P1
[3] = target: T1, recombinant nidogen (Mus musculus (Mouse)); assay: radioligand competition assay: non-labeled fragment P1 varied, 0.2 nM recombinant nidogen, 125I-laminin fragment P1; remark: listed apart in the source
nidogen = target: T2, nidogen (Mus musculus, UniProt P10493); details: Fox et al. 1991; read-out: κD of the high affinity binding site for nidogen; cited from earlier work
T2 sequence (P10493 29-1245): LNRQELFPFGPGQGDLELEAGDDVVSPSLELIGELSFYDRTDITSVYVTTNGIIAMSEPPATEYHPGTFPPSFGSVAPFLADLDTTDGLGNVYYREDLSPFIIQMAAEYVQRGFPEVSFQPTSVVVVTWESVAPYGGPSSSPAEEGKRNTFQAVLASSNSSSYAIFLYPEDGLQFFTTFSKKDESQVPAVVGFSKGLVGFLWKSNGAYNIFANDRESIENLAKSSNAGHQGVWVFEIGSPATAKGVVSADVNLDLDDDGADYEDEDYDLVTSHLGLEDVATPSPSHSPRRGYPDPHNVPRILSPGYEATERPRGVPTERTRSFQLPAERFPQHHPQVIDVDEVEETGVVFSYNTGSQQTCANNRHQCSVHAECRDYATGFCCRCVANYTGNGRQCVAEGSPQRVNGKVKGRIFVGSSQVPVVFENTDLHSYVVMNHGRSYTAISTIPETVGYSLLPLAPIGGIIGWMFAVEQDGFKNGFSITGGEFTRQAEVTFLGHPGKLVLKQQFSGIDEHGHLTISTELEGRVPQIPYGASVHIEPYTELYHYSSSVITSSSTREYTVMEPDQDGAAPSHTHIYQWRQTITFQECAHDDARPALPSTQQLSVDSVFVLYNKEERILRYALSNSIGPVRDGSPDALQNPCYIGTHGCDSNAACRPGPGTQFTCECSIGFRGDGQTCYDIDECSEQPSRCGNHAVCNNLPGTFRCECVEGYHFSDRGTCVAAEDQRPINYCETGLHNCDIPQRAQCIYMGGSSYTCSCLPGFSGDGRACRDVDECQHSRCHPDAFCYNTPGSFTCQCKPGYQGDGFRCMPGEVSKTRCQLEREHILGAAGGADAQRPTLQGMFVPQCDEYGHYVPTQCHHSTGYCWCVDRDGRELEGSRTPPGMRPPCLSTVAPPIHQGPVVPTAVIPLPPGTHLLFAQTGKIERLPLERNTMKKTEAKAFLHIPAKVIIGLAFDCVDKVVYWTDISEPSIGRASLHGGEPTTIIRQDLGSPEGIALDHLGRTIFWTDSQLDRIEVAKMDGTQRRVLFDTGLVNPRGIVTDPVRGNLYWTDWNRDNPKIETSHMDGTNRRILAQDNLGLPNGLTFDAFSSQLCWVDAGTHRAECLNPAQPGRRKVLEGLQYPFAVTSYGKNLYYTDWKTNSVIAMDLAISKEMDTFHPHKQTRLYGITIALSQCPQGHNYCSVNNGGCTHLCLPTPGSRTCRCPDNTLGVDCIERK

recombinant nidogen [4] = target: T3, recombinant nidogen (Mus musculus (Mouse), UniProt P10493); assay: radioligand competition assay: inhibitor varied, 0.2 nM recombinant nidogen, 125I-laminin fragment P1
T3 sequence: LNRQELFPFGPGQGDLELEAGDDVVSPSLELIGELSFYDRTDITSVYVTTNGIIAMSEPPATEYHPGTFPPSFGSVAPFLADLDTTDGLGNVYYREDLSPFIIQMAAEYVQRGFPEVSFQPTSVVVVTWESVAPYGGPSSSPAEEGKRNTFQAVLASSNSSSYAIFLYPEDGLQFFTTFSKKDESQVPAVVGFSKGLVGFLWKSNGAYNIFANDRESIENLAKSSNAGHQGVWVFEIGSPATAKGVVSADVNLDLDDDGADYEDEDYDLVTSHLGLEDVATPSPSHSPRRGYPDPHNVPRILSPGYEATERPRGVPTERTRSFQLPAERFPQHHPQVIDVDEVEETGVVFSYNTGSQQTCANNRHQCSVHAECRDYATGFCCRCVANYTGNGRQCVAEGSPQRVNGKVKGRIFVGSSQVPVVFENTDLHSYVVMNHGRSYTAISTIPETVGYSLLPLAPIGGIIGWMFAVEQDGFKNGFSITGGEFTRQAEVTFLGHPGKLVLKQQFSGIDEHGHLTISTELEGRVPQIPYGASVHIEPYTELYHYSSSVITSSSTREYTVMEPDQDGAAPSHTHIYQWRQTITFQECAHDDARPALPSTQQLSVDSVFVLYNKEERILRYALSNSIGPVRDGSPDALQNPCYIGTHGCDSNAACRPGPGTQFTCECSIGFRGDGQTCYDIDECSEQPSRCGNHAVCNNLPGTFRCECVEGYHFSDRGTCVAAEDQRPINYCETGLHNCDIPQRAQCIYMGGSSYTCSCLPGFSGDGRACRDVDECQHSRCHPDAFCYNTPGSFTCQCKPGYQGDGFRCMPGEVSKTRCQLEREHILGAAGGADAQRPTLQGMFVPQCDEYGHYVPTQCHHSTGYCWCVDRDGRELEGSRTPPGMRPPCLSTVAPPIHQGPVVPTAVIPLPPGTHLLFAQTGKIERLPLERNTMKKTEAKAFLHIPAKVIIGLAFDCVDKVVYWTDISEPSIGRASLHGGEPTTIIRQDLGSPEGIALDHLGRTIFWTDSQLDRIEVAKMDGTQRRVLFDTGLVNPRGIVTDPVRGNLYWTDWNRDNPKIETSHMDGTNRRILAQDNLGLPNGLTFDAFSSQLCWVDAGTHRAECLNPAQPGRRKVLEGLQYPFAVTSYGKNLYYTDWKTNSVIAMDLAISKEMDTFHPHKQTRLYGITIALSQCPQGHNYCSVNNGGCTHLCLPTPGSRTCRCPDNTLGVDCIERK
Procedure: (§1) A radioligand competition assay was used for measurement of relative binding affinities (Mann K. et al. (1988), Eur. J. Biochem., 178, 71–80; Fox, J. W. et al. (1991), EMBO J., 10, 3137–3146). A fixed concentration of recombinant nidogen (0.2 nM) was incubated overnight at 4° C. with inhibitors at varying concentrations, followed by the addition of ^125I-labeled laminin fragment P1 (0.01 nM; 10,000–20,000 c.p.m.) for the same incubation period. Bound and non-bound fragment P1 was then separated by antibodies against nidogen.

recombinant nidogen [5] = target: T3, recombinant nidogen; assay: radioligand competition assay; end of the range tied to this mutant by its IC50 in Table IV
Procedure: as §1

recombinant nidogen [6] = target: T3, recombinant nidogen; assay: radioligand competition assay, reduced and alkylated against the non-reduced chimera
Procedure: as §1

recombinant nidogen [7] = target: T3, recombinant nidogen; assay: radioligand competition assay, reduced and alkylated against the non-reduced mutant
Procedure: as §1

recombinant nidogen [8] = target: T3, recombinant nidogen; assay: radioligand competition assay: inhibitor varied, 0.2 nM recombinant nidogen, 125I-laminin fragment P1; remark: listed apart in the source
Procedure: as §1

recombinant nidogen [9] = target: T3, recombinant nidogen; assay: radioligand competition assay, nitrated γ1III3-5
Procedure: as §1

recombinant nidogen [10] = target: T3, recombinant nidogen; assay: radioligand competition assay, Tyr-acetylated γ1III3-5
Procedure: as §1

[11] = target: T1, recombinant nidogen (Mus musculus (Mouse)); assay: radioligand competition assay, synthetic heptapeptide variant
[12] = target: T1, recombinant nidogen (Mus musculus (Mouse)); assay: radioligand competition assay: inhibitor varied, 0.2 nM recombinant nidogen, 125I-laminin fragment P1

laminin fragment P1 showed an IC50 [1] of 0.08 nM, an IC50 [2] of 0.05 nM and an IC50 [3] of 0.05 nM.

In the case of “laminin 1: laminin of chain composition α1β1γ1”, the Kd (nidogen) is given as 0.5 nM.

B1: γ1III4Y819-A (other)
chain: PCQCNDNIDPNAVGNCNRLTGECLKCIANTAGFYCDRCKEGFFGNPLAPNPADKCK
In the case of B1, the IC50 (recombinant nidogen [4]) is reported as 3 nM and the “fold reduction in activity against wild-type γ1III4” value (recombinant nidogen [5]) is reported as 30 to 60 fold.

B2: γ1III4Y819/825-A (other)
chain: PCQCNDNIDPNAVGNCNRLTGECLKCIANTAGFACDRCKEGFFGNPLAPNPADKCK
In the case of B2, the IC50 (recombinant nidogen [4]) is reported as 1.5 nM and the “fold reduction in activity against wild-type γ1III4” value (recombinant nidogen [5]) is reported as 30 to 60 fold.

B3: γ1III3ab4cd, reduced (other)
chain: PC(Succinimide(1-Et,3-yl))PC(Succinimide(1-Et,3-yl))PGGSSC(Succinimide(1-Et,3-yl))AIVPKTKEVVC(Succinimide(1-Et,3-yl))THC(Succinimide(1-Et,3-yl))IYNTAGFYC(Succinimide(1-Et,3-yl))DRC(Succinimide(1-Et,3-yl))KEGFFGNPLAPNPADKC(Succinimide(1-Et,3-yl))K
With B3 the “fold decrease in activity on reduction and alkylation” value (recombinant nidogen [6]) was 6 fold and the IC50 (recombinant nidogen [4]) was 6700 nM.

B4: γ1III4Y819/825-A, reduced (other)
chain: PC(Succinimide(1-Et,3-yl))QC(Succinimide(1-Et,3-yl))NDNIDPNAVGNC(Succinimide(1-Et,3-yl))NRLTGEC(Succinimide(1-Et,3-yl))LKC(Succinimide(1-Et,3-yl))IANTAGFAC(Succinimide(1-Et,3-yl))DRC(Succinimide(1-Et,3-yl))KEGFFGNPLAPNPADKC(Succinimide(1-Et,3-yl))K
For B4, the “fold decrease in activity on reduction and alkylation” value (recombinant nidogen [7]) was about 300 fold and the IC50 (recombinant nidogen [4]) was 430 nM.

B5: nitrated γ1III3-5 (other)
chain: PCPCPGGSSCAIVPKTKEVVCTHCPTGTAGKRCELCDDGYFGDPLGSNGPVRLCRPCQCNDNIDPNAVGNCNRLTGECLKCIYNTAGFYCDRCKEGFFGNPLAPNPADKCKACACNPYGTVQQQSSCNPVTGQCQCLPHVSGRDCGTCDPGYYNLQSGQGCE
modifications: tyrosines nitrated with tetranitromethane
With B5 the IC50 (recombinant nidogen [8]) was 3 nM and the “fold decrease in binding activity against unmodified γ1III3-5” value (recombinant nidogen [9]) was 75 fold.

B6: γ1III3-5, Tyr acetylation (other)
chain: PCPCPGGSSCAIVPKTKEVVCTHCPTGTAGKRCELCDDGYFGDPLGSNGPVRLCRPCQCNDNIDPNAVGNCNRLTGECLKCIYNTAGFYCDRCKEGFFGNPLAPNPADKCKACACNPYGTVQQQSSCNPVTGQCQCLPHVSGRDCGTCDPGYYNLQSGQGCE
modifications: tyrosine hydroxyl groups acetylated with acetic acid anhydride
For B6, the “fold decrease in binding activity against unmodified γ1III3-5” value (recombinant nidogen [10]) was 75 fold and the IC50 (recombinant nidogen [8]) was 3 nM.

Work on NINPNAV yielded a fold reduction in activity against the heptapeptide NIDPNAV [11] of 100 fold and an IC50 [12] of 100000 nM.
